Our source for the Kd values is paper PMC9445180.

In the assay the target is HTRA1^PD + 7-mer ABP (purified covalent complex of HTRA1^PD and biotin-DPMFKLV-phosphonate) (human) (UniProt Q92743). As to the kind of experiment: SPR; His6-tagged HTRA proteins (about 200 RU) captured with the His-capture kit on a CM5 chip, Fab15H6.v4 as analyte, single-cycle kinetics, three-fold dilutions from 1 nM or 1 μM; absence of binding verified with 3 μM Fab; Biacore S200, 25 °C, HBS-EP; 1:1 Langmuir model.
HTRA1^PD + 7-mer ABP (purified covalent complex of HTRA1^PD and biotin-DPMFKLV-phosphonate) (human), sequence (Q92743 161-379, one chain of several): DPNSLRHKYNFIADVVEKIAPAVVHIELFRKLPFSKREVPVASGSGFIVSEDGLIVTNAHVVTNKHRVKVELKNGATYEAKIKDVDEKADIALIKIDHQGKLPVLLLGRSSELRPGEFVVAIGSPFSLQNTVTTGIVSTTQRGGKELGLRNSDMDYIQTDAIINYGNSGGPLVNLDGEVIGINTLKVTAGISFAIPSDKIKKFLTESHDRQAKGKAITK

B1: Fab15H6.v4 (Fab, V domains shown)
VH: EVQLVQSGAEVKKPGASVKVSCKASGYKFTDSEMHWVRQAPGQGLEWIGGVDPETEGAAYNQKFKGRATITRDTSTSTAYLELSSLRSEDTAVYYCTRGYDYDYALDYWGQGTLVTVSS
VL: DIQMTQSPSSLSASVGDRVTITCRASSSVEFIHWYQQKPGKAPKPLISATSNLASGVPSRFSGSGSGTDFTLTISSLQPEDFATYYCQQWSSAPWTFGQGTKVEIK
As usually defined, the Kd is a measure of binding affinity in units of concentration. For B1, the Kd was found to be 210 pM.
